The results in this text go back to patent US20220409745, “COMPOSITIONS AND METHODS OF USING ENGINEERED FUSION PROTEINS THAT BIND G4C2 HUMAN REPEATS” (The Regents of the University of California, published 2022).

The target of data set [1] is T1, ZFP106 Znf1 (Z1) (Homo sapiens, UniProt Q9H2Y7 SEQ:1-25). Description: EMSA; binds G-q structure. Conditions: G4.
Data set [2] deals with T1, ZFP106 Znf1 (Z1). Briefly: EMSA; binds non-G-q structure. Conditions: non-G4.

T1 sequence (Q9H2Y7 20-44): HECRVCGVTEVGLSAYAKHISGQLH

B1: (G4C2)8 RNA G-quadruplex (ssRNA)
RNA: GGGGCCGGGGCCGGGGCCGGGGCCGGGGCCGGGGCCGGGGCCGGGGCC
Turning to B1, the binding result with ZFP106 Znf1 (Z1) [1] was “binds”.

B2: (G4C2)8 RNA non-G-quadruplex (ssRNA)
RNA: B1 RNA
Regarding B2, the binding result with ZFP106 Znf1 (Z1) [2] is recorded as “binds”.
